Experiment: label from the status in PepcDB records

Sequence | protein production
MGHHHHHHSHNQEHQLGNNTLSSHLQIDKMTDNKTGEVLISENVVASIQPAEGSFEGDLKVPRMEEKEALVPIQKATDSFHTELHPRVAFWIIKLPRRRSHQDALE | failed
MSDIVLEVQSLHVYYGAIHAIKGIDLKVPRGQIVTLIGANGAGKTTTLSAIAGLVRAQKGKIIFNGQDITNKPAHVINRMGIALVPEGRRIFPELTVYENLMMGAYNRKDKEGIKRDLEWIFSLFPRLKERLKQLGGTLSGGEQQMLAIGRALMSRPKLLMMDEPSLGLAPILVSEVFEVIQKINQEGTTILLVEQNALGALKVAHYGYVLETGQIVLEGKASELLDNEMVRKAYLGVA | not failed
MDPERDALRIALYYALFSILWILSSDYLVALMFQPHVMVRLSVLKGSLFIILTSLLLYFLLKLYLRSLTDKERALRISEHKFRSLFMELPLGVVLMDTYGRILESNPAMGRFHGDSLDGMLIGEIHPDLEPGPDREFMVRMDGRWLRVVITRIEGGFLGIFEDLTDIKNSEEAARRSLEANRTLLAELHHRVKNNLQIISSLISIQSSKMPREHAEIMRSLQLRIKSIAVIHEMLLSSPESSSISFASYVSGLTGYLRDMYQSAAEFELDVPDVEFNIETAVPLGLIVGELVSNSLRHAFTDGGTIRISLEARDDGFILVVADNGGAFPITSAFRNQPASAWSLLRIW | failed
MEVNRLSALTPPMGWNSWDCYGASVTEEEVLGNAEYMANHLKKYGWEYIVVDIQWYEPTANSSAYNPFAPLCMDEYGRLLPATNRFPSAKNGAGFKPLSDAIHDLGLKFGIHIMRGIPRQAVYENSPVLGSTKTAREIAHTNSICPWNTDMYGVDPTKEGAQSYYNSLFELYAQWGVDFVKVDDIAASRLYDTHLEEIKMIQRAIQACGRPMVLSLSPGPAPIKYAHHFKTNANMWRITDDFWDDWSLLYQMFERCEVWEKHIGTGHWPDCGMLPLGHIGIRSVDGPGGDRWTRFTKDEQLTMMNLWAICHSPLMFGGELRDNDEWTLSLLTNEGILSINQKSVLNRFVYREEDKVAWAANGRNGEAYVALFNLHDQQKTLQFRLDMVGIMETVQLFNVWDRSFLQSLAPSESFQIELKPHQSMMLKLSPDR | not failed
MAPRDIRPGAEYGDIIEEAIVTCKVFLIVFSETSQISRWVRSELNIGFSSNKPIIPFRIDPTDLKGSMKLMLNDKHWLNAYPNPEEKFSELAAVILDLLQHPAVDTISPPGFQPASNVASADGSNAGAQGLFGKLLNQLFVKRRVKVTSDHAAEIFLNGERKGKLDAYETGNYSVSEDFYQLEVYSCEYGKKVKCEYSGSFSNSSTVIISVDMATAEKQYLMKAKNITSGQINDLGIIFLDEGKFEDAQECFLKAASMGEAAAAYNLGMMYHFGKGVEIDYDVAREYYEEAVKSDYPLALNNLGSIYYNGHGVRKDIAKSFPYFCRAAERGVESAQFTVATMLFYGQGVAVDKAKAKKWFQKAAAQGCKDSQNYLNSWVDDLEHHHHHH | not failed
MLGAAPENCTVNELNPDRANQLRSQGFTVTEQDATAYLPNQLYDVVIMNPPFGRVKGKRFRLAGEMGTTSQIDQAIALHSLQAMKDDGRAVLILG | failed
MYGISVFLGEEITNDTIIYIKKMKALGFDGIFTSLHIPEDDTSLYRQRLTDLGAIAKAEKMKIMVDISGEALKRAGFSFDELEPLIELGVTGLRMDYGITIEQMAHASHKIDIGLNASTITLEEVAELKAHQADFSRLEAWHNYYPRPETGIGTTFFNEKNRWLKELGLQVFTFVPGDGQTRGPIFAGLPTLEKHRGQNPFAAAVGLMADPYVDAVYIGDPTISERTMAQFGYYHQTNQFLLEVAPSESRYLKRILGTHTNRLDAARDVLRSELSRTSEMFRKDEIATIESEQTEARPVGTVTIDNEKYGRYMGEIQVTLVDLPKDEKVNTITRIIEKDQTILPLIKAGNQFTLVTEGTIENEFRKLNN | not failed
MSAWFELKQYGSGACRFLLKTKEAQTMLQSDRYPCRDSAEAALGLFRAHCASPERYVKKISSGGKPFFKLKSGKEVILVSHLYDSEATLESAISAIASAGTTERVEHIQL | failed
MPRNNKTSLIQKIASQAYATFTNCSSSAIEDNNKVFLEHQADLVALLSDIRAADLKIAPPTKVSTSSPSVPPVTYMHICETDVFSMGVFLLKSGASIPLHDHPGMHGMLKVLYGKVSIRCYDKLDKAESDTERHFDPPLLAFQGDDVRRAALRSSGQFSELSGPCVLSPFKDNLHEIDAVDGAAAFLDILAPPYDPDDGRDCHYYRVLQTAGKKSEQSGDDEAWLLEIPQPDDFWCGGEPYPGPEVTI | not failed
MASGSTQVKYLGIYQKMKQQILDGEYKINEKIPSSPVLAEEFDVSVLTIKKALDLLVRDGYIIRRRGSGTVVQDWRQQEKARMIQTLTGTKAVYGSEVESKIIEFTIVGADEIIAEKLGISVGDFVYKIIRLRIIHSIPTIMEHTWMPISVIPGVEVSVLEESIYSHIQNKLGLQVGTSVVRVKGIRPDDKEKQFMNLTNQDFLMRVEQVAYLTDGRTFEYSYADHLPETFEFETVITAKSYKEA | not failed
MVKAYQRYDAATSFGVISSVDSNIAYDSTGKYVLAPALEKVGIWHVRQGVCSKTLTPSSSRGGPSLAVTSIASSASSLVAVGYADGSIRIWDTEKGTCEVNFNSHKGAVTALRYNKVGSMLASGSKDNDIILWDVVGESGLFRLRGHRDQVTDLVFLDGGKKLVSSSKDKFLRVWDLETQHCMQIVSGHHSEVWSVDTDPEERYVVTGSADQELRFYAVKEYSSNGSLVSDSNANEIKASEEHSTENKWEILKLFGEIQRQTKDRVARVRFNVSGKLLACQMAGKTIEIFRVLDEAEAKQKAKRRLRRKEKKSSKVGDENSTANGEASAKIELADAVSSPTVLDVFKLLQVIRAGRKISSFSFCPTAPKESLGTLALSLNNNSLEFYSLKSSENAKTVTIEHQGHRSDVRSVTLSEDNTLLMSTSHSEVKIWNPSTGSCLRTIDSGYGLCSLIVPQNKYGIVGTKSGVLEIIDIGSATKVEEVKAHGGTIWSITPIPNDSGFVTVSADHEVKFWEYQVKQKSGKATKKLTVSNVKSMKMNDDVLAVAISPDAKHIAVALLDSTVKVFYMDSLKFYLSLYGHKLPVMCIDISSDGELIVTGSQDKNLKIWGLDFGDCHKSIFAHGDSVMGVKFVRNTHYLFSIGKDRLVKYWDADKFEHLLTLEGHHAEIWCLAISNRGDFLVTGSHDRSMRRWDRSEEPFFLEEEKEKRLEELFESEIDNAADDRHGPMEEIPEEGVAALAGKKTIDVLSAADSIIDALEVAEDETKRHAAYEEEKTKGKVPEYLPNAVMFGLSPSEYVLRAISNVRTNDLEQTLLALPFSDSLKFLCYMKDWSLIPEKVELVSRIATIILQTHHNQLVTTPSARPILSVLRDILYSEIKACKDTIGFNLAAMDHVKQMMDARSDAPFKDAKAKLLEIRSQQAKRMASRGDTKMEKKRKKKQKKLEEGQHGHALF | failed
MDQQYDFGRPMGHERRSKEHDVTMRNRKTLDITGVKQVESFDNEEFLLETEMGFLSIRGRNLHMKNLNVEEGLVSIEGKIFDMVYLEQGQGEKSKGFFGKLFKLEHHHHHH | failed
MTSTASSTDIRQGQAADEQWPSWQQRLRRFGYTAPPRTDVRDRLVPPFSEPSPRLWAAIGLRQEVADRVTRWSAWGGPLLVTLLAGLLRFWNLGSPKAVIFDETYYAKDAWALIHNGYEANWAKDANDLILQGNGHVAIPTDPAYVVHPPVGKYVIGLGEWLFGFTPFGWRFMTALLGTLSVLLLCRIGRRLFRSTFLGCLAGALMAVDGLHFVMSRTSLLDGVLMFFVLAAFGCLVVDRDRARARLAAALPADADGVVRPDAHTAETTRLGPRPWRWLAGLMLGLALGTKWNALYVMAAFCVMAVLWDVGSRRVAGARRPYAAVLRRDTGITFLATVPVAVATYLVSWTGWILSPANGSGGYFRNWAATDGKGGHWTWLPDWLRSLWHYEHEVYEFHVGLSSPHQYQSNPWSWLVAGRPVSYFYESPSPGKDGCPADAGEKCAREVLALGTPLLWWAACFAVLYVLWRWLFRRDWRAGAIACGIAAGWLPWMMYQERTIFYFYAVVFVPFLCLAVAMMIGAILGPPGSGERRRVVGAAGAGVLVLLIAWNFIYFWPLYTGTAIPIDDWRSRMWLDTWV | failed
MDPSTLMILAIVAVAIIVLAVFFTFVPVMLWISALAAGVKISIFTLVGMRLRRVIPNRVVNPLIKAHKAGLNVGTNQLESHYLAGGNVDRVVNALIAAQRANIELTFERCAAIDLAGRDVLEAVQMSVNPKVIETPFIAGVAMDGIEVKAKARITVRANIERLVGGAGEETIVARVGEGIVSTIGSSDNHKKVLENPDMISQTVLGKGLDSGTAFEILSIDIADVDIGKNIGAILQTDQAEADKNIAQAKAEERRAMAVAQEQEMRARVEEMRAKVVEAEAEVPLAMAEALREGNIGVMDYMNIKNIDADTEMRDSFGKLT | failed
